{"source": "patent US9951111B2", "about": "“Type I interferon mimetics as therapeutics for cancer, viral infections, and multiple sclerosis” (priority 2011, dated 2018)", "molecules": {"B1": {"name": "IFNα1(69-189) (protein, listed as Homo sapiens)", "chain": "NQFQKAPAISVLHELIQQIFNLFTTKDSSAAWDEDLLDKFCTELYQQLNDLEACVMQEERVGETPLMNADSILAVKKYFRRITLYLTEKKYSPCAWEVVRAEIMRSLSLSTNLQERLRRKE"}, "B2": {"name": "IFNα1 (protein, UniProt P01562 24-189, looked up)", "Interferon alpha-1/13": "CDLPETHSLDNRRTLMLLAQMSRISPSSCLMDRHDFGFPQEEFDGNQFQKAPAISVLHELIQQIFNLFTTKDSSAAWDEDLLDKFCTELYQQLNDLEACVMQEERVGETPLMNADSILAVKKYFRRITLYLTEKKYSPCAWEVVRAEIMRSLSLSTNLQERLRRKE"}, "B3": {"name": "IFNβ(100-187)R9 (protein)", "chain": "RRRRRRRRRWNETIVENLLANVYHQINHLKTVLEEKLEKEDFTRGKLMSSLHLKRYYGRILHYLKAKEYSHCAWTIVRVEILRNFYFINRLTGYLRN"}, "B4": {"name": "IFNα1(69-189)R9 (protein)", "chain": "RRRRRRRRRNQFQKAPAISVLHELIQQIFNLFTTKDSSAAWDEDLLDKFCTELYQQLNDLEACVMQEERVGETPLMNADSILAVKKYFRRITLYLTEKKYSPCAWEVVRAEIMRSLSLSTNLQERLRRKE"}}, "key": {"[1]": {"tested_on": "vesicular stomatitis virus (VSV)", "type": "cell-based"}, "[2]": {"assay": "Body weight of mice under IFNα1 or lipo-peptide (FIG. 13)", "conditions": "5×10^3 U/mouse i.p. on alternate days (peptide 100 μg), day 11 difference p<0.05"}, "vaccinia virus [3]": {"tested_on": "vaccinia virus", "type": "in vivo, mice (C57BL/6)", "conditions": "i.n. infection; peptides 200 μg or murine IFNα1 2,000 U i.p. for six consecutive days; FIG. 12"}, "[4]": {"tested_on": "experimental allergic encephalomyelitis (EAE) in SJL/J mice", "assay": "Relapsing/remitting EAE in SJL/J mice immunized with MBP", "type": "in vivo", "conditions": "15 μg/mouse i.p. every other day from day 12 post-immunization with MBP; FIG. 6C"}, "vaccinia virus [5]": {"tested_on": "vaccinia virus", "type": "cell-based"}, "EMC virus": {"tested_on": "EMC virus", "type": "cell-based, encephalomyocarditis (EMC) virus"}, "lymphocytes": {"tested_on": "lymphocytes", "assay": "IFN toxicity in vivo: lymphocyte count on blood smears (Table 4)", "conditions": "day 11, i.p. alternate days for ten days, IFN mimetics 2 × 10^3 U in 200 μg per mouse, IFNβ 10^3 U/mouse; for % Reduction (lymphocytes): versus PBS"}, "[6]": {"assay": "IFN toxicity in vivo: body weight (FIG. 7)", "conditions": "2,000 U per mouse of IFN mimetic I.P. on alternate days"}}, "note": "Ends that are not written are not given here.", "data": [{"molecule": "lipo-IFNα1(152-189) (LYLTEKKYSPCAWEVVRAEIMRSLSLSTNLQERLRRKE; also: lipid attached; listed as Homo sapiens)", "values": [{"measurement": "antiviral activity against vesicular stomatitis virus (VSV)", "setting": "[1]", "result": "showed antiviral activity"}, {"measurement": "weight loss", "setting": "[2]", "result": "not seen"}, {"measurement": "protection against vaccinia virus lethal infection (survival)", "setting": "vaccinia virus [3]", "result": "inhibited vaccinia virus lethal infection of mice"}]}, {"molecule": "lipo-IFNβ(150-187) (ILHYLKAKEYSHCAWTIVRVEILRNFYFINRLTGYLRN; also: lipidated; UniProt P01574 150-187, looked up, fragment)", "values": [{"measurement": "antiviral activity against vesicular stomatitis virus (VSV)", "setting": "[1]", "result": "showed antiviral activity"}]}, {"molecule": "lipo-IFNτ(156-195) (EKGYSDCAWEIVRVEMMRALTSSTTLQKRLTKTGGDLNSP; also: lipid attached)", "values": [{"measurement": "antiviral activity against vesicular stomatitis virus (VSV)", "setting": "[1]", "result": "showed antiviral activity"}]}, {"molecule": "B1", "values": [{"measurement": "therapeutic efficacy in EAE (mean daily severity of disease)", "setting": "[4]", "result": "developed paraplegia"}]}, {"molecule": "B2", "values": [{"measurement": "protection against vaccinia virus (VV) infection", "setting": "vaccinia virus [5]", "result": "did not protect"}, {"measurement": "weight loss", "setting": "[2]", "result": "weight loss seen"}, {"measurement": "protection against vaccinia virus lethal infection (survival)", "setting": "vaccinia virus [3]", "result": "ineffective"}]}, {"molecule": "B3", "values": [{"measurement": "antiviral activity against EMC virus", "setting": "EMC virus", "result": "possessed antiviral activity"}, {"measurement": "Lymphocytes (%)", "setting": "lymphocytes", "result": "72 ± 5", "unit": "%"}, {"measurement": "% Reduction (lymphocytes)", "setting": "lymphocytes", "result": 9, "unit": "%"}, {"measurement": "body weight change", "setting": "[6]", "result": "gained weight"}]}, {"molecule": "B4", "values": [{"measurement": "therapeutic efficacy in EAE (mean daily severity of disease)", "setting": "[4]", "result": "essentially complete therapeutic efficacy"}, {"measurement": "antiviral activity against EMC virus", "setting": "EMC virus", "result": "possessed antiviral activity"}, {"measurement": "Lymphocytes (%)", "setting": "lymphocytes", "result": "75 ± 3", "unit": "%"}, {"measurement": "% Reduction (lymphocytes)", "setting": "lymphocytes", "result": 4, "unit": "%"}, {"measurement": "body weight change", "setting": "[6]", "result": "gained weight"}]}]}
